Binding result and Kd data for seven molecules are collected here from paper PMC3521961, “Molecular Basis for Recognition of Dilysine Trafficking Motifs by COPI” (Developmental Cell, 2012).

No end group written: not given here.

What all share (details): both partners purified
The target in test [1] is T1, yeast β'-COP 1-304 (N-terminal WD-repeat domain), untagged, wild type (yeast (S. cerevisiae), UniProt P41811 1-304).
T1 construct: also called β'-COP N-terminal WD-repeat domain
T1 sequence (looked up): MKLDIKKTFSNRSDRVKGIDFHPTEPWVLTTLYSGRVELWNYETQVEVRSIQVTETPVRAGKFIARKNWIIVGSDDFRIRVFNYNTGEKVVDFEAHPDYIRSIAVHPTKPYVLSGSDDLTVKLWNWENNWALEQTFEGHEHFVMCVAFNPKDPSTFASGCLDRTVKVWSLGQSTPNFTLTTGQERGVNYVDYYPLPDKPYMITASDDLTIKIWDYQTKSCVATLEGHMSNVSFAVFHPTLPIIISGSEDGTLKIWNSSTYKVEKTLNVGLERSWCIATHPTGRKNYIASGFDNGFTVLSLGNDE
Nature of the test: crystal structure; β'1-304 (untagged) with CTFKKTN; details in the Supplemental Experimental Procedures.

Test [2] deals with T1, yeast β'-COP 1-304 (N-terminal …). Nature of the test: ITC; Microcal VP-ITC, 10°C; peptide in the syringe at ten times the molar concentration of the β'-COP construct in the cell; 50 mM HEPES (pH 7.4), 100 mM NaCl. Background: ITC needs no label: the signal is the heat of the interaction.
Test [3] concerns the target T2, yeast β'-COP 1-304 R15A K17A R59A (yeast (S. cerevisiae), UniProt P41811 1-304, R15A | K17A | R59A).
T2 construct: constructs are in the Supplemental Experimental Procedures; also called β'-COP R15A K17A R59A mutant
T2 sequence (looked up): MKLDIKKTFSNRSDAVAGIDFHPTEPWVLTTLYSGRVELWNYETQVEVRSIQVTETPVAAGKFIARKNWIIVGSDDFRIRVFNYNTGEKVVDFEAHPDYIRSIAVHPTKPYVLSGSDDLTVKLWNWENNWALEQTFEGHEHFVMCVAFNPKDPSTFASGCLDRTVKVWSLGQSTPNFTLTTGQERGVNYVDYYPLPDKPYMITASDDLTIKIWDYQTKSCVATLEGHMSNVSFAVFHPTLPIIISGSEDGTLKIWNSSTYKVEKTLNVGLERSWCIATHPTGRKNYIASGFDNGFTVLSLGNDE
The test is described as above.

Test [4] deals with T3, yeast β'-COP 1-304 D206A E248A (yeast (S. cerevisiae), UniProt P41811 1-304, D206A | E248A).
T3 construct: constructs are in the Supplemental Experimental Procedures; also called D206A E248A mutant
T3 sequence (looked up): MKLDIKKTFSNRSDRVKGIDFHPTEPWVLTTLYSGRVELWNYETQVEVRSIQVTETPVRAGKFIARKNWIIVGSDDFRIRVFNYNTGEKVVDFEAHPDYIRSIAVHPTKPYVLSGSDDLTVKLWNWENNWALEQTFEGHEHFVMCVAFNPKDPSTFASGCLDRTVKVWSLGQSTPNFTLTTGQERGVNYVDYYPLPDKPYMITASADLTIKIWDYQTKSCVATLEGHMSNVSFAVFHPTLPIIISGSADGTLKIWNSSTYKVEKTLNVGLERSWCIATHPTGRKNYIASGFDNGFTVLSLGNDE
The description is as above.

The target in test [5] is T4, yeast β'-COP 1-304 D98A D117A (yeast (S. cerevisiae), UniProt P41811 1-304, D98A | D117A).
T4 construct: constructs are in the Supplemental Experimental Procedures; also called D98A D117A mutant
T4 sequence (looked up): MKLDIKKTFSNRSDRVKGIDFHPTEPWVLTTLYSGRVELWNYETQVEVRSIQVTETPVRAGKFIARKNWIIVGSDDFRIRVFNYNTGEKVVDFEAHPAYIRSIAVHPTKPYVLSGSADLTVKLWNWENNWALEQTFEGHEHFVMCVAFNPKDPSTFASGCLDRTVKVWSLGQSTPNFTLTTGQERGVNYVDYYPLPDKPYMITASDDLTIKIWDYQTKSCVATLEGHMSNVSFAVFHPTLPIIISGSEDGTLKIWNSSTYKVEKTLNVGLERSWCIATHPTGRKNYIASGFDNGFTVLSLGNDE
The test is described as above.

Test [6] addresses T5, yeast α-COP 1-327 (N-terminal WD-repeat domain), wild type (yeast (S. cerevisiae), UniProt P53622 1-327).
T5 construct: α-COP (Ret1), yeast, residues 1-327, N-terminal WD-repeat domain; also called α1-327; Wild type A327; source: E. coli BL21(DE3)pLysS, purified (glutathione sepharose, thrombin cleavage, S200 gel filtration); not shown: GST, C-terminal, cleaved
T5 sequence (looked up): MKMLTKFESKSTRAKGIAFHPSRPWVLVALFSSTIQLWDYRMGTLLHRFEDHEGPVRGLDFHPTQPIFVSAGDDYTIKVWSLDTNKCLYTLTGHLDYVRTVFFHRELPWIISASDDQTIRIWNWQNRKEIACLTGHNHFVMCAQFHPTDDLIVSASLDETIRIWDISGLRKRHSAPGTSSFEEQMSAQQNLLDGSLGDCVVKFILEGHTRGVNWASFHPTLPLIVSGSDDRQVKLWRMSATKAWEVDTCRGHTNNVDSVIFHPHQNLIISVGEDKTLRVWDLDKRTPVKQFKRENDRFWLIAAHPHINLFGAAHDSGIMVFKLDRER
Nature of the test: ITC; Microcal VP-ITC, 10°C, 35 injections of 8 µL; peptide in the syringe at ten times the molar concentration of the protein in the cell; α-COP desalted into 20 mM Hepes pH 7.4, 300 mM NaCl (high salt required for stability).

For test [7], the target named is T6, yeast β'-COP 1-604 (both WD-repeat domains) (yeast (S. cerevisiae), UniProt P41811 1-604).
T6 construct: constructs are in the Supplemental Experimental Procedures
T6 sequence (looked up): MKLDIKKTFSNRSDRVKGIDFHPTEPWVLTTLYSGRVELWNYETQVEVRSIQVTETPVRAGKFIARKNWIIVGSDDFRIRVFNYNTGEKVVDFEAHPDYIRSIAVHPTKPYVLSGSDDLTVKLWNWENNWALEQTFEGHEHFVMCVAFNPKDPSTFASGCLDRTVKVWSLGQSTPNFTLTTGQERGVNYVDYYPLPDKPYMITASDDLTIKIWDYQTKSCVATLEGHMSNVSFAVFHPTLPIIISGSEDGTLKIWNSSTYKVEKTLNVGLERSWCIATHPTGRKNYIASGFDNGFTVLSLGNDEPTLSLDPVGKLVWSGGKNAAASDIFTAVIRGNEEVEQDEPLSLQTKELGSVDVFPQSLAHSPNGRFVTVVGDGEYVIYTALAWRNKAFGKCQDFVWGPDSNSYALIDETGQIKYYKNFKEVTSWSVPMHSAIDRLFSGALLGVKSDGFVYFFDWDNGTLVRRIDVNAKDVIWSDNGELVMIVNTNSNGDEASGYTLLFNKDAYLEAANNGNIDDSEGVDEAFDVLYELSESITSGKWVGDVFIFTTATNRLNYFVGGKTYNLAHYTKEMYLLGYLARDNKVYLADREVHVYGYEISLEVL
Nature of the test: crystal structure; β'1-604 (10 mg/ml) with CTFKTKTN (30 mg/ml, mixed 1:10); 0.1 M bicine (pH 9.0), 10% MPD; space group P3(1), twinned.

For test [8], the target named is T1, yeast β'-COP 1-304 (N-terminal …). The experiment in a line: crystal structure; β'1-304 (10 mg/ml) with CTFKTKTN (30 mg/ml, mixed 1:10); 0.1 M HEPES (pH 7.5), 0.5 M ammonium sulfate, 30% v/v MPD; space group P6(1).
Test [9] deals with T7, yeast β'-COP 1-304 (N-terminal WD-repeat domain), untagged (yeast (S. cerevisiae), UniProt P41811 1-304).
T7 construct: source: E. coli BL21(DE3)pLysS, purified (glutathione sepharose, thrombin cleavage, S200 gel filtration); not shown: GST, C-terminal, cleaved
T7 sequence (looked up): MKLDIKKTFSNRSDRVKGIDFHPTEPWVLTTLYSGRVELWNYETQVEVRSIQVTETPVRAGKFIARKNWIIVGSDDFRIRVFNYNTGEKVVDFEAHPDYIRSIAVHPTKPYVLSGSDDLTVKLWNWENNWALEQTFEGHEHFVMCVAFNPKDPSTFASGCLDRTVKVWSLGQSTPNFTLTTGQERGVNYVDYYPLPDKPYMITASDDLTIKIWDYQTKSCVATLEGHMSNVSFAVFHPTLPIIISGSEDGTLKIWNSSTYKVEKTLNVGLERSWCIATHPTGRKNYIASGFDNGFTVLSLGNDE
Nature of the test: ITC; Microcal VP-ITC, 10°C; peptide in the syringe, protein in the cell; 50 mM Hepes pH 7.4, 100 mM NaCl.

As a reminder, the Kd is a measure of binding affinity in units of concentration.

B1: CTFKKTN peptide (KKxx motif derived from yeast Wbp1), used in crystallization (peptide)
peptide: CTFKKTN
notes: KKxx motif derived from the C terminus of yeast Wbp1; The N-terminal cysteine may not be a residue of Wbp1 (surmise); also called CTFKKTN motif; source: peptide
On to B1, for which the binding result in test [1] is “binds”.

B2: KxKxx motif peptide from wild-type yeast Emp47 (RQEIIKTKLL) (peptide)
peptide: RQEIIKTKLL
notes: also called KTKLL motif; source: peptide
Turning to B2, the dissociation constant Kd in test [2] is 6.8 µM; in test [3], less than 300 µM; in [4], less than 300 µM; in test [5], less than 300 µM.
As for CTFKKTN-OH [KKTN motif peptide from yeast Wbp1 (as used in ITC)], in [6], the Kd amounted to 81 µM.
In the case of CTFKKTN-OH [Wbp1 KKTN motif peptide used for ITC], in test [2], the dissociation constant (Kd) is roughly 85 µM.

B3: CTFKTKTN peptide (KxKxx motif, synthetic peptide used in crystallization) (peptide)
peptide: CTFKTKTN
notes: synthetic KxKxx peptide used in crystallization; Looks like the Wbp1-derived CTFKKTN with a threonine between the two lysines; source: synthetic peptide
Consider B3, for which the binding result in [7] and in test [8] was “binds” throughout.
In turn, RQEIISTKLL-OH [Emp47 KxKxx peptide without the -5 lysine (STKLL)] yielded a Kd in test [2] of roughly 160 µM.
With RQEIIKTKLL (also called KTKLL motif) [yeast Emp47 C-terminal KxKxx peptide RQEIIKTKLL], the Kd in test [9] lay in the range of 10 to 20 µM.
